This note sets out measurements from PMC7578760.

Data set [1] deals with T1, CIC-HMG/C1 fusion (UniProt Q96RK0-2 188-288+1401-1608, internal_change). Nature of the data set: ITC. (In general: ITC needs no label: the signal is the heat of the interaction.)
Another data set addresses CIC-HMG (UniProt Q96RK0-2 188-288). Nature of the data set: ITC.
Data set [2] concerns the target T1, CIC-HMG/C1 fusion. The data set is described as follows: EMSA. On the technique in general: Mobility shift assays separate free from complexed probe on a gel.

B1: DUSP6 site #5 (ITC) (dsDNA)
DNA 1: GGCAGCTTCATTGAGAGAGA
DNA 2: TCTCTCTCAATGAAGCTGCC
With B1, the binding result in the data set with CIC-HMG/C1 fusion [1] is “binds”.

B2: DUSP6 site #4 (ITC) (dsDNA)
DNA 1: TTGGATTTCATTCACTGGGG
DNA 2: CCCCAGTGAATGAAATCCAA
In the case of B2, the binding result in the data set with CIC-HMG is given as “no binding”; with CIC-HMG/C1 fusion [1], “binds”.

B3: DUSP6 site #6 (EMSA) (dsDNA)
DNA 1: GAGAGATTCATTGACACTAA
DNA 2: TTAGTGTCAATGAATCTCTC
Regarding B3, the binding result with CIC-HMG/C1 fusion [2] is on record as “binds”.

B4: DUSP6 site #6 (ITC) (dsDNA)
DNA 1: GAGAGATTCATTGACACTAA
DNA 2: TTAGTGTCAATGAATCTCTC
B4: in the data set with CIC-HMG/C1 fusion [1], the binding result was “binds”.

B5: DUSP6 mutant site #4 (EMSA) (dsDNA)
DNA 1: TTGGATTTAGCTCACTGGGG
DNA 2: CCCCAGTGAGCTAAATCCAA
On to B5, for which the binding result with CIC-HMG/C1 fusion [2] is given as “no binding”.

B6: DUSP6 site #5 (EMSA) (dsDNA)
DNA 1: GGCAGCTTCATTGAGAGAGA
DNA 2: TCTCTCTCAATGAAGCTGCC
For the molecule B6, in the data set with CIC-HMG/C1 fusion [2], the binding result was “binds”.

B7: DUSP6 site #4 (EMSA) (dsDNA)
DNA 1: TTGGATTTCATTCACTGGGG
DNA 2: CCCCAGTGAATGAAATCCAA
B7: in the data set with CIC-HMG/C1 fusion [2], the binding result is “binds”.
